Drawing on publication PMC7949091, this text covers percentage of hemocyte phagocytosis of FITC-labeled S. aureus coated with rEsVg-DUF1943, in vitro, flow cytometry (controls ∼11.39%; with siEspIgR ∼5.57%) and percentage of hemocyte phagocytosis of FITC-labeled V. parahaemolyticus coated with rEsVg-DUF1943, in vitro, flow cytometry (with siEspIgR ∼6.10%) for one substance.

The target of the experiment is HA-tagged extracellular domain of EspIgR (E. sinensis polymeric immunoglobulin receptor) (E. sinensis).

With “Flag-tagged EsVg-DUF1943 domain (domain or fragment)”, the percentage of hemocyte phagocytosis of FITC-labeled S. aureus coated with rEsVg-DUF1943, in vitro, flow cytometry (controls ∼11.39%; with siEspIgR ∼5.57%) is 22.1% and the percentage of hemocyte phagocytosis of FITC-labeled V. parahaemolyticus coated with rEsVg-DUF1943, in vitro, flow cytometry (with siEspIgR ∼6.10%) worked out at 21.5%.
